This note sets out measurements from publication PMC12240809 (2025).

Holding throughout (assay): MST
Test [1] concerns the target T1, FoTO1 (facilitator of taxane oxidation), fused to N-terminal mTurquoise2 (Taxus media).
Test [2] concerns the target T2, FoTO1(ΔC), FoTO1 with the C-terminal α-helix deleted, fused to N-terminal mTurquoise2 (Taxus media).
For test [3], the target named is T1, FoTO1 (facilitator of taxane …). This is another data set of the same source.
Test [4] addresses T2, FoTO1(ΔC), FoTO1 with the C-terminal …. The source holds these as a separate data set.

Read-outs that look alike come from different tables or passages of the source. A value given as a limit tells only on which side of the number the result lay.

Usually Kd stands for a measure of binding affinity in units of concentration.

B1: taxadiene 5α-hydroxylase (T5αH), soluble portion, 47 N-terminal amino acids removed (enzyme)
chain: SSLKLPPGKLGIPFIGESFIFLRALRSNSLEQFFDERVKKFGLVFKTSLIGHPTVVLCGPAGNRLILSNEEKLVQMSWPAQFMKLMGENSVATRRGEDHIVMRSALAGFFGPGALQSYIGKMNTEIQSHINEKWKGKDEVNVLPLVRELVFNISAILFFNIYDKQEQDRLHKLLETILVGSFALPIDLPGFGFHRALQGRAKLNKIMLSLIKKRKEDLQSGSATATQDLLSVLLTFRDDKGTPLTNDEILDNFSSLLHASYDTTTSPMALIFKLLSSNPECYQKVVQEQLEILSNKEEGEEITWKDLKAMKYTWQVAQETLRMFPPVFGTFRKAITDIQYDGYTIPKGWKLLWTTYSTHPKDLYFNEPEKFMPSRFDQEGKHVAPYTFLPFGGGQRSCVGWEFSKMEILLFVHHFVKTFSSYTPVDPDEKISGDPLPPLPSKGFSIKLFPRP
modifications: RED-tris-NTA dye on the His tag (NanoTemper His-Tag labelling kit)
Regarding B1, the dissociation constant (Kd) in test [1] was 470 nM; in test [2], greater than 10000 nM.

B2: taxadiene synthase 2 (TDS2), soluble portion, 60 N-terminal amino acids removed (enzyme)
chain: SGSPTKLATENANAVAESNLIPRLSANYHGDLWHHGVIQTLQTPYQESSSYQERAEELIVKIKDMFKAVEEGAISPSAYDTAWVARVPDGSEKPRFPQALNWLLHNQLQDGSWGLESHFMLSDRLLSTLNSVISLLVWKTGQQQVEQGTLFITENLKLLEGEDELPPDFEIIFPALLQKAKALGMSLPDHDLPFIKSLSVAREARLASYTDNNIPASMLNALEGLEEVIDWDKIMRFQMPCLYSIDLLERLSLVDNIEHLGIGRHFKQEIKVALDYVYRYWSERGIGLGRDSLIPDLNTTALGLRTLRAHGYNVSSEVLNNFKDENGRFFSSLGQTHVELRSMVNLLRASDLAFPDEPLMDDAKIFAEAYLRDALATRISTNTKLFKEIDYAVEYPWHMSIPRLEARSYIDVYDDDYTWQNKTLYRMSNLSNAYCLELAKLDFNIVQSLHQEELKLLTRWWKESGMADINFTRHRVAEVYFSSATFEPEYSSTRIAFTKIGCLQVLFDDMADIFATLDELRDFTEGVKRWDTSLIHKLPDCMQTCFRVWFNLMEEVNNDVSNVQGRDMLNHIRKPWELYFNCYVQEREWLDAGYIPTLEEYLKTYSISVGLGPCTLQPILLMGDIVKDDVVEKVHYPSNLFELVSLSWRLTNDTKTYQAEKARGQQASGIACYMKDNPGSTEEDAIKYICGVVDRALKEACFEYFKPADDVPMSCKSFIFNLRLCVQIFYKFIDGYGIANEEIKDYIRKVYIEPIQV
modifications: RED-tris-NTA dye on the His tag (NanoTemper His-Tag labelling kit)
For B2, the values for the Kd in test [3] and in test [4] were 610 nM and greater than 10000 nM, respectively.
